Test results reported in patent publication US20070184493.

Experiments:
[1] = system: substrate designed for detection of Caspase 3 (-DEVD′GIN- cleavage)
[2] = system: substrate designed for detection of Granzyme B (-VGPD′FGR- cleavage)

| Substance | Fluorogenic activity of indicated substrates measured in solution after addition of recombinant enzyme [1] | Fluorogenic activity of indicated substrates measured in solution after addition of recombinant enzyme [2] |
| --- | --- | --- |
| recombinant Caspase 3 | selective cleavage of substrates designed for detection of ... Caspase 3 (-DEVD′GIN- cleavage) protease activities |  |
| recombinant Granzyme B |  | selective cleavage of substrates designed for detection of Granzyme B (-VGPD′FGR- cleavage) |
